The text below walks through data of US20190315821A1, “COMPOSITIONS COMPRISING HEPCIDIN AND METHODS OF USE THEREOF” (La Jolla Pharmaceutical Company, priority 2018, published 2019).

Where “and” joins values, the source holds several entries; their conditions need not be identical. Equal entries are not always repeated.

Data set [1] can be described thus: Stability (aggregate formation by SEC) of unpurified and purified hepcidin in 0.9% saline at 40° C. Type of data set: physicochemical. To be noted: for Stability: aggregate formation of the batch; for aggregation at low pH: pH 2.5, 0.9% saline, over 10 days; for aggregate by SEC: pH 5.6, 0.9% saline. Here is the method: Aggregation can be measured by several different methods. In some embodiments, aggregation is measured by size exclusion high-performance liquid chromatography (SEC-HPLC). This method allows for the separation and quantification of hepcidin monomer from any aggregates including dimer, trimer and multimers. In other preferred embodiments, aggregation is measured by an isocratic method performed on an HPLC system comprised of a temperature controlled auto-sampler, a binary or quaternary pump, and an ultraviolet detector. For example, in some such embodiments, the mobile phase consists of 0.05% TFA in 50% acetonitrile and water and human hepcidin-25 (SEQ ID NO: 1) is dissolved in of 0.05% TFA to 1 mg/mL concentration. Five microliters of the solution are injected onto a Zenix-C SEC-80 column of 7.8×300 mm in dimension, 80 Å pore size and 3 μm particle size (Sepax Technologies, Newark, Del. 19711). A flow rate of 1 mL/min is used to elute the analyte from the column and deliver to the UV detector set at 214 nm. The entire run time is 13 min. Empower™ chromatography software or equivalent software is used to integrate each chromatography peak and calculate % peak area at each respective retention time.
(§1) In view of the role played by intermolecular disulfide bond formation in aggregate formation, and the contribution of thiol groups to that end, multiple sources of hepcidin-25 were analyzed for thiol using a thiol content assay and evaluated for stability. Commercially available hepcidin was used in these Examples, which while “purified” to contain only hepcidin, contained thiols and aggregates, and thus may be referred to as “unpurified” to distinguish it from the compositions of the invention. […] For the purpose of this experiment the thiol impurity was removed as follows: Thiols were quenched using 1 molar equivalents of […] (NEM). The solution was then purified by tangential flow filtration (TFF) using Millipore Pellicon 2 10 kDa cassettes for aggregate removal and Pall T-Series 1 kDa for ultra-filtration-diafiltration. The starting material was diluted to less than or equal to 0.1 mg/mL prior to processing through the 10 kDa system. The diluent consisted of 15% Acetonitrile/0.05% Trifluoracetic acid (TFA).
The initial unpurified material and the resulting purified material were formulated in 0.9% saline at either pH 2.5 or pH 5.6 and assessed for stability at 40° C. Samples were taken over 10 days and evaluated by SEC.
A general note: In gel filtration, larger molecules generally elute earlier.

A short description of data set [2]: Thiol content assay of hepcidin-25 batches. To be noted: for Average mole thiol/[mole hepcidin]: batches of hepcidin-25 before and after purification, lower quantifiable limit 0.01; for thiol content of sample of FIG. 2: sample used in pH 2.5 / pH 5.6 stability study. Type of data set: physicochemical.
Excerpt: In some embodiments, the composition comprises purified hepcidin and is substantially free of thiol (e.g., unreacted, free sulfhydryl-containing cysteines). Thiols can react with the disulfide bridges of hepcidin resulting in disulfide scrambling and potential polymerization of multiple hepcidin molecules to form aggregated hepcidin. Such thiols can come from multiple sources, some of which include thiols left over from synthesis of the hepcidin, incomplete folding of hepcidin and breakage of disulfide bridges within folded hepcidin, improperly folded hepcidin and/or aggregated hepcidin. Thiols may be measured by several methods, which may include a thiol quantification assay kit such as that from Molecular Probes: Thiol and Sulfide Quantification Kit (T-6060). Such a kit uses cysteine as a standard so that thiols are reported as cysteine equivalents. In some such embodiments the thiol content is less than 0.20 mole thiol/mole hepcidin. In some preferred embodiments, the thiol content is less than 0.1 mole thiol/mole hepcidin. In more preferred embodiments, the thiol content is less than 0.05 mole thiol/mole hepcidin. In further preferred embodiments, the thiol content is less than 0.015 mole thiol/mole hepcidin. In the most preferred embodiments, the thiol content is less than 0.01 mole thiol/mole hepcidin.
as §1

The nature of data set [3]: Effect of salt form on aggregate formation. To be noted: for native pH of solution: when preparing solutions of hepcidin, before pH adjustment; for aggregation when maleic acid is present: pH 4.2, 1 mg/mL maleic acid, continued aggregation then slowed. Type of data set: physicochemical. Here is the method:
The trifluoroacetate, chloride and acetate salts of hepcidin were prepared and all three salt forms were formulated in 0.9% saline at pH 4.2. The hepcidin concentration was 20 mg/mL with a maleic acid concentration of either 0 mg/mL or 1 mg/mL. Samples were filtered using a 0.2 μm syringe filter and aliquoted into glass screw cap amber vials. The samples were assessed for stability at 5° C. and 25° C. Over the course of 47 days the samples were evaluated by visual inspection, pH and SEC.

Data set [4] can be described thus: Mechanism of aggregate formation: stability studies and DTT reduction, SEC. Type of data set: physicochemical. From the text: Hepcidin contains 8 cysteines, forming 4 disulfide bridges, each with the potential to become unstable under certain conditions. […] Significant work was completed to address this degradation pathway.
Briefly, the effect of potential intermolecular disulfide bonding on aggregation was studied by adding a reducing agent to aggregated material to break all disulfide bonds. Hepcidin-25 with an aggregate content of 35% as measured by SEC was used for this study. An aliquot of this material was treated with 20 mM Dithiothreitol (DTT) and samples were evaluated by SEC.

The nature of data set [5]: Initial formulation stability (oxidation) by RP-HPLC. Type of data set: physicochemical. The method, then: […] Samples were analyzed by reversed-phase high-performance liquid chromatography (RP-HPLC). […] Samples were evaluated over 4.5 months and analyzed by RP-HPLC. Under all conditions, the rate of oxidation observed was slow.
The test system of the next data set is serum iron. As to conditions: cited from earlier work.
Data set [6] in a line: Effect of pH 4.2 vs pH 4.8 on aggregate formation. Type of data set: physicochemical. As to conditions: 9% starting aggregate, thiol removed, 0.9% sodium chloride, 5° C. and 25° C., about 50 days. The method, then:
Hepcidin-25, with 9% starting aggregate and purified to remove thiol, was dissolved in 0.9% sodium chloride and adjusted to either pH 4.2 or pH 4.8. Samples were filtered using a 0.2 μm syringe filter and aliquoted into glass screw cap amber vials. Samples were assessed for stability at both 5° C. and 25° C. Samples were taken over about 50 days and evaluated by visual inspection, pH and SEC.

Take “Vendor 1, Lot 1 purified: hepcidin-25 lot with thiols quenched with NEM and purified by tangential flow filtration”: the Stability entry in data set [1] is reported as “Stable, very slow”. Besides, the “aggregation at low pH” value in data set [1] (40° C.) is recorded as “no aggregation”. Besides, the “aggregate by SEC” value in data set [1] (after 10 days at 40° C.) is “about 38%”. Also, in data set [2], the “Average mole thiol/[mole hepcidin]” value was below 0.01 mole thiol/mole hepcidin and the “thiol content of sample of FIG. 2” value was “no detectable thiol”.
Consider “Vendor 1, Lot 1: commercially available hepcidin-25 batch containing thiols and aggregates, referred to as unpurified”, for which, in data set [1], the Stability entry is reported as “Unstable, rapid”. The “aggregation at low pH” value in data set [1] (40° C.) is listed as “aggregates more slowly”. Besides, the “aggregate by SEC” value was above 95% in data set [1] (40° C., after 24 hours) and 38% in data set [1] (within time it took to test the material by SEC). Further, the “Average mole thiol/[mole hepcidin]” value in data set [2] is listed as 0.17 mole thiol/mole hepcidin. The “thiol content of sample of FIG. 2” value in data set [2] came out at 1.7 mole thiol/mole hepcidin.
As for “Vendor 1, Lot 2: commercially available hepcidin-25 batch, unpurified”, the Stability entry in data set [1] was “Unstable, rapid”. The “Average mole thiol/[mole hepcidin]” value in data set [2] is recorded as above 0.2 mole thiol/mole hepcidin.
On to “Vendor 2, Lot 1: commercially available hepcidin-25 batch, unpurified”, for which the Stability result in data set [1] was “Unstable, slower”. The “Average mole thiol/[mole hepcidin]” value in data set [2] is recorded as 0.03 mole thiol/mole hepcidin.
Turning to “Vendor 2, Lot 2: commercially available hepcidin-25 batch, unpurified; label printed on two lines of Table 2”, the Stability result in data set [1] is on record as “Unstable, slower”. Further, the “Average mole thiol/[mole hepcidin]” value in data set [2] is 0.03 mole thiol/mole hepcidin and 0.02 mole thiol/mole hepcidin.
Turning to “Vendor 3, Lot 1: commercially available hepcidin-25 batch, unpurified”, the Stability result in data set [1] is reported as “Unstable, slower”. For the same substance, in data set [2], the “Average mole thiol/[mole hepcidin]” value is given as 0.03 mole thiol/mole hepcidin.
For hepcidin acetate [acetate salt form], the “relative stability of salt forms” value in data set [3] (20 mg/mL, 0.9% saline, pH 4.2, 0 or 1 mg/mL maleic acid, 5° C. and 25° C., 47 days) is on record as “most stable of the three salt forms”. Also, the “native pH of solution” value in data set [3] is listed as “about 5”.
Regarding hepcidin chloride [HCl salt], in data set [3] (20 mg/mL), the “aggregation when maleic acid is present” value is “initial increase in aggregation”. In data set [3], the “native pH of solution” value is on record as “about 2.5”.
Consider hepcidin trifluoroacetate [TFA], for which the “aggregation when maleic acid is present” value in data set [3] (20 mg/mL) is “initial increase in aggregation”.
With hepcidin-25, in data set [4] (accelerated (40° C.) and real time (5° C.) stability studies), the “main mode of degradation” value was “aggregation”. In data set [4] (material with 35% aggregate treated with 20 mM DTT), the “aggregation after reduction of disulfide bonds” value is “aggregation is reversed”. Moreover, in data set [5] (40 mg/mL in saline with or without methionine, 37° C. and 45° C., 4.5 months, all conditions), the rate of oxidation entry was “slow”. The “effect of methionine excipient on oxidation” value in data set [5] (40 mg/mL in saline, methionine ten-fold molar excess, 37° C. and 45° C.) is listed as “reduced the amount of oxidation even further”. The “primary degradation products observed” value in data set [5] (50, 100 and 150 mg/mL, 5° C. over 4.5 months, RP-HPLC) is “mono or di-oxidation of the methionine at position 21”. Moreover, the safety profile result in the data set with serum iron (nonclinical and clinical studies) is reported as “favorable safety profile”. Moreover, the “duration of iron lowering effects” value in the data set on serum iron (single subcutaneous injection) is “up to 1 week”. In data set [6], the “effect of pH on stability (aggregate formation)” value is recorded as “pH 4.2 being more stable than pH 4.8”.
